The record followed here is PMC2425495 (Nucleic Acids Research, 2008).

In one data set the target is T1, HutP (V51I) (Bacillus subtilis, UniProt P10943 1-148, V51I).
T1 sequence: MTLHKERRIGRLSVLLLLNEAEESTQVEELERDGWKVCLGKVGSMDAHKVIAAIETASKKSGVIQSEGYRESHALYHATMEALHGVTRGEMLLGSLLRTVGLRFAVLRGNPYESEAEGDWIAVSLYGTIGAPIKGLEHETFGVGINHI
Put plainly: EMSA.

The data set “crystal structure” concerns the molecule itself. As to the kind of experiment: crystal structure.

For the molecule UUUAGUUUUUAGUUUUUAGUU (ssRNA) [21-mer RNA], the binding result with HutP (V51I) was “binds”.

B1: HutP (Val 51 Ile mutant), anti-termination protein of the hut operon (natural protein, Bacillus subtilis)
chain: TLHKERRIGRLSVLLLLNEAEESTQVEELERDGWKVCLGKVGSMDAHKVIAAIETASKKSGVIQSEGYRESHALYHATMEALHGVTRGEMLLGSLLRTVGLRFAVLRGNPYESEAEGDWIAVSLYGTIGAPIKGLEHETFGVGINHI
With B1, in “crystal structure”, the “stoichiometry N” value was 6.

Usually stoichiometry N stands for the number of molecules, sites or subunits per partner or assembly.
